# Results reported in article PMC10442075.
# How the values were obtained:
# [1] = biological target: catalytic subunit of mouse PKA (mouse) (UniProt P05132)
# [2] = biological target: catalytic subunit of mouse PKA (mouse) (UniProt P05132); remark: listed apart in the source
# Chain of unphosphorylated GSK3β (Glycogen Synthase Kinase 3β) (P49841 whole entry): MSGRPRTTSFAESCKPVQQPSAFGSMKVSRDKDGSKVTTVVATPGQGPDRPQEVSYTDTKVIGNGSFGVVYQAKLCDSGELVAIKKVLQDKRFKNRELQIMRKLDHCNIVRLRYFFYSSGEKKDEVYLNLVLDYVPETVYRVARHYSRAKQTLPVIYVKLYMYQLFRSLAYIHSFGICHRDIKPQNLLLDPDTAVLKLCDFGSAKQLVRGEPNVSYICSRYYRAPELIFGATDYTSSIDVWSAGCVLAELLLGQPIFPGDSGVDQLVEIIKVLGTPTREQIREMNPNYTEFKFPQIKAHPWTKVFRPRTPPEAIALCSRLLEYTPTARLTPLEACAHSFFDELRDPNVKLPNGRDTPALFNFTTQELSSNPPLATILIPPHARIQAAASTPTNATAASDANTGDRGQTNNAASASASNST
substance,measurement,setting,value
unphosphorylated GSK3β (Glycogen Synthase Kinase 3β) (from UniProt P49841 1-420) (enzyme),fold increase in KM for PKA phosphorylation of GSK3β at Ser9 (20 nM PKA) on addition of 500 nM full-length Axin,[1],4 fold
same,fold increase in KM for PKA phosphorylation of GSK3β at Ser9 on addition of the Axin (381-407) peptide,[2],7 fold
